One test concerns the target T1, human GITR (human, UniProt Q9Y5U5 26-241).
T1 construct: also called glucocorticoid-induced TNFR family-related receptor; TNFRSF18
T1 sequence: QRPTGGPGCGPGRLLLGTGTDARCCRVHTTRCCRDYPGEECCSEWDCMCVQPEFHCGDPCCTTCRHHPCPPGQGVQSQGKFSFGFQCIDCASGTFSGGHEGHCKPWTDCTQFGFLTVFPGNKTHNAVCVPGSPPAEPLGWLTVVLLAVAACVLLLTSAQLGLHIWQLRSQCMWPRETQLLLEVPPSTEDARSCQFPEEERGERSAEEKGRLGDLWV
Kind of test: flow cytometry on activated human T cells, anti-FLAG detection. The protocol:
Binding of purified monovalent anti-GITR Nanobodies to human GITR expressed on activated T cells was evaluated in flow cytometry. For this purpose, PBMCs from healthy donors were cultured with Dynabeads® Human T-Activator CD3/CD28 (Gibco—Life Technologies #11131D) for 7 days in a 1/2 bead/cell ratio.
Dilution series of Nanobodies starting from […] were applied to the cells. Nanobodies were allowed to associate for 30 minutes at 4° C. in FACS buffer (PBS supplemented with 10% FBS and 0.05% azide). Cells were washed by centrifugation and probed with anti-FLAG antibodies (Sigma F1804) for 30 minutes at 4° C., to detect bound Nanobody. […] Cells were washed and incubated with TOPRO3 to stain for dead cells which were subsequently removed during the gating procedure. The cells were then analysed via a BD FACSArray.

Test [1] concerns the target T2, human GITR-Fc (Enzo Life Sciences, ALX-522-061-C050) (human, UniProt Q9Y5U5 26-162).
T2 construct: Bought protein; not shown: Fc part of the bought fusion protein; not described
T2 sequence: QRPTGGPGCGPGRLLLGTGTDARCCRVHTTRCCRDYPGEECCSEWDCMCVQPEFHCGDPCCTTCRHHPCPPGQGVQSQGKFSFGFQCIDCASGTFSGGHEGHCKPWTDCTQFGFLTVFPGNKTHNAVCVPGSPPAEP
Nature of the test: ProteOn XPR36; human GITR-Fc amine-coupled on GLC chip, Nanobody injected at 6 concentrations. The protocol: Affinity was determined on the Proteon XPR36. Briefly, after human GITR-Fc (Enzo Life Sciences, ALX-522-061-C050) was immobilized on a GLC chip via amine coupling, a range of 6 concentrations of different monovalent Nanobodies (representing each family) were injected. The Ko values were determined by using the calculated association rate and dissociation rate constants (Table 1) (ProteOn Manager 3.1.0, Version 3.1.0.6 (2011)).

B1: A0231005A03 (VHH)
VHH: EVQLVESGGGLVQPGGSLRLSCAASETIFSIDSMAWYRQAPGKQRELVAAITGGGSPNYADSVKGRFTISSDVAKRTVYLQMNSLKPEDTAVYYCNAEGQAGWGTALMDYWGKGTLVTVSS
notes: Monovalent Nanobody expressed in E. coli with a triple Flag, HIS6 tag; also called A0231PMP005A03; PA0231PMP005A03.1; not shown: C-terminal triple FLAG and HIS6 tag
For orientation: EC50 means the concentration at which the effect is half-maximal. The low end stands for an effect from little substance, the high end for a need for much substance. For orientation: Kd means a measure of binding affinity in units of concentration. Higher therefore signals a looser complex. A word on the koff: it is the rate constant with which the complex falls apart. The low end stands for slow dissociation, the high end for fast dissociation. As a reminder, the kon is the second-order rate constant of association. A lower kon goes with slow association. In the test with human GITR, B1 came in with an EC50 of 0.79 nM. In test [1], the equilibrium dissociation constant (Kd) came to 3.4 nM, the koff stood at 0.0023 s⁻¹ and the kon worked out at 680000 M⁻¹ s⁻¹.

B2: A0231052A08 (VHH)
VHH: EVQLVESGGGLVQAGGSLRLSCVASGSISSITAMGWHRQAPGAQREGVAVISRSGATMLVDSVKGRFTIVQDNAKNTVYLQMNSLKVEDTAVYGCSAITQGRTYWGQGTLVTVSS
notes: Monovalent Nanobody expressed in E. coli with a triple Flag, HIS6 tag; also called A0231PMP052A08; PA0231PMP052A08.1; not shown: C-terminal triple FLAG and HIS6 tag
B2: in the test with human GITR, the EC50 was 23 nM. In test [1], this molecule returned a Kd of 24 nM, a koff of 0.00097 s⁻¹ and an association rate constant (kon) of 41000 M⁻¹ s⁻¹.

B3: A0231034A08 (VHH)
VHH: EVQLVESGGDLVQPGGSLRLSCAASGSVFSINDMGWFRQAPGKQRELVADIISRGVTNYADSVKGRFTISGDPAKNTVYLQMNSLKPEDTAVYYCNAHISTGWGRPHNNYWGQGTQVTVSS
notes: Monovalent Nanobody expressed in E. coli with a triple Flag, HIS6 tag; also called A0231PMP034A08; PA0231PMP034A08.1; not shown: C-terminal triple FLAG and HIS6 tag
The molecule B3 displayed a 50% effective concentration (EC50) in the test with human GITR of 0.54 nM. In test [1], this molecule had a Kd of 2.5 nM, a koff of 0.00067 s⁻¹ and a kon of 270000 M⁻¹ s⁻¹.

B4: A0231003D11 (VHH)
VHH: EVQLVESGGGLVQAGESLRLSCAASGSIFSIDAMGWYRQAPGKQRELVAEISDHTTYGDSVKGRFTISRGNAENTVALQMNSLKPEDTGVYYCNVHHQRGWGTSITVTWGQGTQVTVSS
notes: Monovalent Nanobody expressed in E. coli with a triple Flag, HIS6 tag; also called A0231PMP003D11; PA0231PMP003D11.1; not shown: C-terminal triple FLAG and HIS6 tag
In the test with human GITR, B4 displayed an EC50 of 1.3 nM. In test [1], this molecule displayed a Kd of 4.6 nM, a koff of 0.0029 s⁻¹ and a kon of 630000 M⁻¹ s⁻¹.

B5: A0231033B02 (VHH)
VHH: EVQLVESGGGLVQPGGSLRLSCAASGTIFSISTMGWYRQAPGKQREVVAVTSGFSTNYSSAVKGRFTLSRDPAKNTVFLQMNSLQPEDTATYYCNAYLSLAWRDPDRDYWGQGTQVTVSS
notes: Monovalent Nanobody expressed in E. coli with a triple Flag, HIS6 tag; also called A0231PMP033B02; PA0231PMP033B02.1; not shown: C-terminal triple FLAG and HIS6 tag
In the test with human GITR, B5 gave a concentration giving a half-maximal response (EC50) of 21 nM. For the same molecule, in test [1], the Kd turned out to be 16 nM, the off-rate constant (koff) turned out to be 0.008 s⁻¹ and the kon amounted to 490000 M⁻¹ s⁻¹.

B6: A0231004B01 (VHH)
VHH: EVQLVESGGGLVQPGGSLRLSCAASGSIFSIDSMGWYRQAPGKQRELVAAITSSTNYADSVKGRFTISRDNAKNTVYLQMNSLKPEDTAVYYCNLEGQAGWGTALINYWGKGTLVTVSS
notes: Monovalent Nanobody expressed in E. coli with a triple Flag, HIS6 tag; also called A0231PMP004B01; PA0231PMP004B01.1; not shown: C-terminal triple FLAG and HIS6 tag
B6 displayed an EC50 with human GITR of 0.61 nM. In test [1], this molecule had a Kd of 2.6 nM, an off-rate (koff) of 0.0027 s⁻¹ and an on-rate (kon) of 1.1e+06 M⁻¹ s⁻¹.

The values above are taken from US20220411521A1 (Ablynx, published 2022).
